Reference: PMC3443260
pKd: −log10 of the molar value. Like-named read-outs stand apart in the source and are kept apart here.

How the values were obtained:
[1] = biological target: CI-MPR C-terminal DXXLL peptide (Homo sapiens) (UniProt P11717); test: ITC; conditions: cited from earlier work
[2] = biological target: Flag-tagged mouse GGA2 (mouse) (UniProt Q6P5E6); test: BLI
[3] = biological target: Flag-tagged mouse GGA2 (mouse) (UniProt Q6P5E6); test: BLI; remark: listed apart in the source

Flag-tagged mouse GGA2 (mouse), sequence (Q6P5E6 whole entry): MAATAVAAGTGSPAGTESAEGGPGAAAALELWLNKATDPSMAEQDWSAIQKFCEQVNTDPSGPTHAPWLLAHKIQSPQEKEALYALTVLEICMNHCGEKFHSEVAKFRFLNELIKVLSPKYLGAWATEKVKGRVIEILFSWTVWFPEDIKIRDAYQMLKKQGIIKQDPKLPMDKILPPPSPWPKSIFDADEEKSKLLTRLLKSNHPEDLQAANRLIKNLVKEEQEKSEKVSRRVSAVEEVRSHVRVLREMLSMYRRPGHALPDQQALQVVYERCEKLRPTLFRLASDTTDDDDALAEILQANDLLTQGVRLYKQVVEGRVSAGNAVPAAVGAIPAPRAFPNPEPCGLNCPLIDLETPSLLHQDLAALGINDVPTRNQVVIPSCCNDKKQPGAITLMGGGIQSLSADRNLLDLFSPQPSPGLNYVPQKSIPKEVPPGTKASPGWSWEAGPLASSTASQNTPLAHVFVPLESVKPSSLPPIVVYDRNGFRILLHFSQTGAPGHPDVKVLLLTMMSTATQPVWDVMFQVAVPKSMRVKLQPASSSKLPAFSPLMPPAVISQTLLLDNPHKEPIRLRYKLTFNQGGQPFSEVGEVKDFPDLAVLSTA
GGA2 VHS, sequence (Q9UJY4 30-166): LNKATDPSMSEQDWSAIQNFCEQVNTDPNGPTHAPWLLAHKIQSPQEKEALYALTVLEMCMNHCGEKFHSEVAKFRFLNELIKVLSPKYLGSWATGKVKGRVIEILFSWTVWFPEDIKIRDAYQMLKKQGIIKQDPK

pKd [2]	koff [2]	pKd [3]	Substance	pKd [1]
			GGA2 VHS (from UniProt Q9UJY4)	5.15
6.82	0.0052 s⁻¹		MBP-LRP9 30mer containing both DXXLL motifs (peptide)	
6.55	0.0059 s⁻¹	6.42	MBP-LRP9 30mer with the C-terminal DXXLL motif mutated to AXXAA (peptide)	
